How the values were obtained:
RUNX1 = RUNX1 (Homo sapiens, UniProt Q01196); assay: gcPBM; 2 nM RUNX1; details: tags: N-terminal GST (pDEST15), kept (PMC6008103); label: surface-attached array probe
ETS1:RUNX1 = ETS1:RUNX1 (Homo sapiens, UniProt P14921;Q01196 full;full); assay: gcPBM; 1 nM ETS1 + 25 nM RUNX1, anti-ETS1 signal, normalised; details: tags: N-terminal GST (pDEST15), kept (PMC6008103); copies: 1;1; label: surface-attached array probe
Chain of ETS1:RUNX1 (P14921 whole entry, chain 1 of 2): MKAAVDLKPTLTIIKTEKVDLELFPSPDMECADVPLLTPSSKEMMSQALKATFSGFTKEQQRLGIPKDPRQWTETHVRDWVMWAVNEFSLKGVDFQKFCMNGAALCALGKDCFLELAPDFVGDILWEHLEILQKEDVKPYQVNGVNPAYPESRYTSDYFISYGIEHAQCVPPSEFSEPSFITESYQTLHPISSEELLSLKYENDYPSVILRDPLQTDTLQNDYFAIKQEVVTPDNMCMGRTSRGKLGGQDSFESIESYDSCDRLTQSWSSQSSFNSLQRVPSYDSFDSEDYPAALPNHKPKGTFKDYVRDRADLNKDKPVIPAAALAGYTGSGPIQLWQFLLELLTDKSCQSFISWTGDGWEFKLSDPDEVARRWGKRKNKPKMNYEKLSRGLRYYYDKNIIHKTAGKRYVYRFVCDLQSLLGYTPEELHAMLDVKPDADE
Chain of ETS1:RUNX1 (Q01196 whole entry, chain 2 of 2): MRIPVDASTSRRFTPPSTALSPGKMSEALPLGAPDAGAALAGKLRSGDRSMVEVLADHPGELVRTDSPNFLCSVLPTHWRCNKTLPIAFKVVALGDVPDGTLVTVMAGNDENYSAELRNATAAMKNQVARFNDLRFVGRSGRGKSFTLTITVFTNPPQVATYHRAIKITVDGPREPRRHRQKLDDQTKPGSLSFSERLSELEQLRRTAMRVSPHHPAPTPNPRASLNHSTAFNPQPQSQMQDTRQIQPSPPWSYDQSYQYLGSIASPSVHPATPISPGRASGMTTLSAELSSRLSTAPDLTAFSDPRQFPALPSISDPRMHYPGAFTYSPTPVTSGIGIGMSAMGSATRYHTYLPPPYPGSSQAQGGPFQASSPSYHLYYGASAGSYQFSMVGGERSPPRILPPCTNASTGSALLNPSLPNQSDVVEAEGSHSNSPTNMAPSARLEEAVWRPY

Chain of RUNX1 (Q01196 whole entry): as the sequence (Q01196 whole entry, chain 2 of 2) above

Row | Binder | binding signal (RUNX1) | binding signal (ETS1:RUNX1)
1 | Table S3 C row 136 (dsDNA) DNA 1: GAACTCAGTACAGGCCGGAAGTCGGGGTACGGGGCC DNA 2: GGCCCCGTACCCCGACTTCCGGCCTGTACTGAGTTC | 841 PBM fluorescence, median of replicate spots | –
2 | Table S3 C row 19 (dsDNA) DNA 1: TCCAGACCTCCCCGTCTTCCGGCTGCCCTGAACGTC DNA 2: GACGTTCAGGGCAGCCGGAAGACGGGGAGGTCTGGA | 812 PBM fluorescence, median of replicate spots | –
3 | Table S3 C row 196 (dsDNA) DNA 1: GGGGTTCAGTGCCTCTTTCCGTTGGAGAGAACCTCT DNA 2: AGAGGTTCTCTCCAACGGAAAGAGGCACTGAACCCC | 810 PBM fluorescence, median of replicate spots | –
4 | Table S2 A row 1371 (dsDNA) DNA 1: GAACCTGGGAGGCGGAAGTTGCGGTTAGCCGAGATC DNA 2: GATCTCGGCTAACCGCAACTTCCGCCTCCCAGGTTC | – | 64700 PBM fluorescence, median of replicate spots
5 | Table S3 C row 60 (dsDNA) DNA 1: GGGGCTACTCGCAACAGGAAGTTCGGCCCTTAAAAA DNA 2: TTTTTAAGGGCCGAACTTCCTGTTGCGAGTAGCCCC | 839 PBM fluorescence, median of replicate spots | –
6 | Table S3 C row 142 (dsDNA) DNA 1: GCCCCTGCCCCAGAGAGGAAGTTCGGCCTCATCGAG DNA 2: CTCGATGAGGCCGAACTTCCTCTCTGGGGCAGGGGC | 827 PBM fluorescence, median of replicate spots | –
7 | Table S3 C row 125 (dsDNA) DNA 1: TTCCATTCGATGATGCTTCCGTATGAATCCATTCAC DNA 2: GTGAATGGATTCATACGGAAGCATCATCGAATGGAA | 844 PBM fluorescence, median of replicate spots | –
8 | Table S3 C row 149 (dsDNA) DNA 1: CTCAAGGAGGTGGGACTTCCTGCTAGGTGGGCCGTG DNA 2: CACGGCCCACCTAGCAGGAAGTCCCACCTCCTTGAG | 829 PBM fluorescence, median of replicate spots | –
9 | Table S3 C row 85 (dsDNA) DNA 1: CAGTCTGGCCCTCCACTTCCTGTTTTTATAAATGAA DNA 2: TTCATTTATAAAAACAGGAAGTGGAGGGCCAGACTG | 810 PBM fluorescence, median of replicate spots | –
10 | Table S3 C row 2 (dsDNA) DNA 1: TGGACCTAGGGCAGACGGAAGTTTTGGGAGGGCCGG DNA 2: CCGGCCCTCCCAAAACTTCCGTCTGCCCTAGGTCCA | 810 PBM fluorescence, median of replicate spots | –
11 | Table S3 C row 55 (dsDNA) DNA 1: GGGTTCATGTTTAGCAGGAAGTTGAAATGACTCACC DNA 2: GGTGAGTCATTTCAACTTCCTGCTAAACATGAACCC | 803 PBM fluorescence, median of replicate spots | –
12 | Table S3 C row 88 (dsDNA) DNA 1: TCTCACGTAGACGCGCGGAAACACTAACGAGTTGAA DNA 2: TTCAACTCGTTAGTGTTTCCGCGCGTCTACGTGAGA | 840 PBM fluorescence, median of replicate spots | –
13 | Table S3 C row 182 (dsDNA) DNA 1: TCTGCAGAGGGTTCCCGGATACACCTTGCGAAGAAT DNA 2: ATTCTTCGCAAGGTGTATCCGGGAACCCTCTGCAGA | 844 PBM fluorescence, median of replicate spots | –
14 | Table S3 C row 34 (dsDNA) DNA 1: TTACGGCAAGCCTCACTTCCGGTCTGAACATTACGG DNA 2: CCGTAATGTTCAGACCGGAAGTGAGGCTTGCCGTAA | 808 PBM fluorescence, median of replicate spots | –
15 | Table S3 C row 199 (dsDNA) DNA 1: TATCTGAGGAGTGGCAGGAAGTCTGGGGTGACTTTT DNA 2: AAAAGTCACCCCAGACTTCCTGCCACTCCTCAGATA | 815 PBM fluorescence, median of replicate spots | –
16 | Table S3 C row 183 (dsDNA) DNA 1: CGCCCCAATGTTCGGCGGAAGGGAGGGAGGGTCTCC DNA 2: GGAGACCCTCCCTCCCTTCCGCCGAACATTGGGGCG | 835 PBM fluorescence, median of replicate spots | –
17 | Table S3 C row 189 (dsDNA) DNA 1: TCGCTGATGGCGTCATTTCCGTGAGTCATCTGAGGG DNA 2: CCCTCAGATGACTCACGGAAATGACGCCATCAGCGA | 823 PBM fluorescence, median of replicate spots | –
18 | Table S3 C row 16 (dsDNA) DNA 1: GCTAGATGAAGCCCCTTTCCTGTTGCTGCCTACATT DNA 2: AATGTAGGCAGCAACAGGAAAGGGGCTTCATCTAGC | 818 PBM fluorescence, median of replicate spots | –
19 | Table S3 C row 134 (dsDNA) DNA 1: GGGCAGAAGCACACAAGGAAGTGTTTCTGGGACAGA DNA 2: TCTGTCCCAGAAACACTTCCTTGTGTGCTTCTGCCC | 813 PBM fluorescence, median of replicate spots | –
20 | Table S2 A row 1295 (dsDNA) DNA 1: GCTCTGGGTCACACAGGATGTGGTTTTTGAAGTTTG DNA 2: CAAACTTCAAAAACCACATCCTGTGTGACCCAGAGC | – | 49000 PBM fluorescence, median of replicate spots
21 | Table S3 C row 51 (dsDNA) DNA 1: CACAGAGACACCAACAGGAAGAGACCAGAGAGCCAA DNA 2: TTGGCTCTCTGGTCTCTTCCTGTTGGTGTCTCTGTG | 807 PBM fluorescence, median of replicate spots | –
22 | Table S3 C row 37 (dsDNA) DNA 1: ACCCTCTGTTTTGAGCTTCCGGTAGAGGCTGGTAGG DNA 2: CCTACCAGCCTCTACCGGAAGCTCAAAACAGAGGGT | 852 PBM fluorescence, median of replicate spots | –

Row | Binder | binding signal (RUNX1) | binding signal (ETS1:RUNX1)
23 | Table S2 A row 1184 (dsDNA) DNA 1: GAAGCTCCCCAAACAGGATGTGGTTAGGGAGAGGGG DNA 2: CCCCTCTCCCTAACCACATCCTGTTTGGGGAGCTTC | – | 58300 PBM fluorescence, median of replicate spots
24 | Table S3 C row 171 (dsDNA) DNA 1: AGGAGACAAGCGCCACTTCCGGCAGCGAAGTCACTT DNA 2: AAGTGACTTCGCTGCCGGAAGTGGCGCTTGTCTCCT | 814 PBM fluorescence, median of replicate spots | –
25 | Table S3 C row 177 (dsDNA) DNA 1: TCTCCTACTCCTGCGCGGATGCTCTAGGCCGCTTGC DNA 2: GCAAGCGGCCTAGAGCATCCGCGCAGGAGTAGGAGA | 846 PBM fluorescence, median of replicate spots | –
26 | Table S3 C row 67 (dsDNA) DNA 1: AAAAAAAAAAAAAAAGTTCCGGCCGGGCTGCGCCTC DNA 2: GAGGCGCAGCCCGGCCGGAACTTTTTTTTTTTTTTT | 810 PBM fluorescence, median of replicate spots | –
27 | Table S3 C row 64 (dsDNA) DNA 1: CTCCATCACTGTCGGAGGAAGTGGCATGCAGAGTGG DNA 2: CCACTCTGCATGCCACTTCCTCCGACAGTGATGGAG | 818 PBM fluorescence, median of replicate spots | –
28 | Table S3 C row 30 (dsDNA) DNA 1: ACCGACCTGCCTCGCCGGAACTCCTCGCGCATCGCC DNA 2: GGCGATGCGCGAGGAGTTCCGGCGAGGCAGGTCGGT | 816 PBM fluorescence, median of replicate spots | –
29 | Table S2 A row 1460 (dsDNA) DNA 1: TAGCCACTAACCGGAAACGTTAAACCACAGCTCCGT DNA 2: ACGGAGCTGTGGTTTAACGTTTCCGGTTAGTGGCTA | – | 56100 PBM fluorescence, median of replicate spots
30 | Table S2 A row 706 (dsDNA) DNA 1: TAGCCACGAACCGGAAACGTTAAACCACAGCTCCGT DNA 2: ACGGAGCTGTGGTTTAACGTTTCCGGTTCGTGGCTA | – | 46400 PBM fluorescence, median of replicate spots
31 | Table S3 C row 139 (dsDNA) DNA 1: TAAATGGAAAGCATACATCCTGTTTTTTTGCTGTAG DNA 2: CTACAGCAAAAAAACAGGATGTATGCTTTCCATTTA | 802 PBM fluorescence, median of replicate spots | –
32 | Table S3 C row 115 (dsDNA) DNA 1: GCCACCAGAGGGCGCCGGAAGTCCTGACCCATTGTC DNA 2: GACAATGGGTCAGGACTTCCGGCGCCCTCTGGTGGC | 838 PBM fluorescence, median of replicate spots | –
33 | Table S3 C row 68 (dsDNA) DNA 1: CCCTATTCGCAGAGGAGGAAGTGGAGGCTCTCCAGG DNA 2: CCTGGAGAGCCTCCACTTCCTCCTCTGCGAATAGGG | 829 PBM fluorescence, median of replicate spots | –
34 | Table S3 C row 168 (dsDNA) DNA 1: CAGAAGTCCCGACCCCATCCTGCCACGCCTCAGCGT DNA 2: ACGCTGAGGCGTGGCAGGATGGGGTCGGGACTTCTG | 810 PBM fluorescence, median of replicate spots | –
35 | Table S3 C row 63 (dsDNA) DNA 1: GCACTGAGGCTGACCCGGAAGTTTAAATTACGCTCC DNA 2: GGAGCGTAATTTAAACTTCCGGGTCAGCCTCAGTGC | 812 PBM fluorescence, median of replicate spots | –
36 | Table S3 C row 158 (dsDNA) DNA 1: ACAAAAAAACCCTACCTTCCGCCATGTCTGGCCCGG DNA 2: CCGGGCCAGACATGGCGGAAGGTAGGGTTTTTTTGT | 847 PBM fluorescence, median of replicate spots | –
37 | Table S3 C row 186 (dsDNA) DNA 1: GCTTTCTGGACTACACTTCCCAGAAGCCTCTAGGCC DNA 2: GGCCTAGAGGCTTCTGGGAAGTGTAGTCCAGAAAGC | 826 PBM fluorescence, median of replicate spots | –
38 | Table S3 C row 73 (dsDNA) DNA 1: CCCAGATCACATGACAGGAAGGCAAAGTCCTCAGGT DNA 2: ACCTGAGGACTTTGCCTTCCTGTCATGTGATCTGGG | 850 PBM fluorescence, median of replicate spots | –
39 | Table S3 C row 141 (dsDNA) DNA 1: CTCCAACCCTTGTCCCTTCCGCCTGCCACTGCAGGT DNA 2: ACCTGCAGTGGCAGGCGGAAGGGACAAGGGTTGGAG | 850 PBM fluorescence, median of replicate spots | –
40 | Table S3 C row 18 (dsDNA) DNA 1: GCTGTGATTGCCTCACTTCCTGTGTCATGTGACGCT DNA 2: AGCGTCACATGACACAGGAAGTGAGGCAATCACAGC | 805 PBM fluorescence, median of replicate spots | –
41 | Table S3 C row 7 (dsDNA) DNA 1: ACCCCGACGCAGCCTGGGAAGTGTAGTCCTCTCTGC DNA 2: GCAGAGAGGACTACACTTCCCAGGCTGCGTCGGGGT | 822 PBM fluorescence, median of replicate spots | –
42 | Table S3 C row 42 (dsDNA) DNA 1: CTTTGGCAGCAAGAACATCCGTTCTCTGTTCTTTGC DNA 2: GCAAAGAACAGAGAACGGATGTTCTTGCTGCCAAAG | 821 PBM fluorescence, median of replicate spots | –
43 | Table S3 C row 175 (dsDNA) DNA 1: CTGCGCGGCCCACCCCGGATGTCAGCCCCACGCGCC DNA 2: GGCGCGTGGGGCTGACATCCGGGGTGGGCCGCGCAG | 823 PBM fluorescence, median of replicate spots | –

— article PMC10681739, “High-throughput data and modeling reveal insights into the mechanisms of cooperative DNA-binding by transcription factor proteins”
